Laboratory results published in article PMC8395977.

Experiments:
[1] = molecular target: iota carbonic anhydrase from Thalassiosira pseudonana (tpι-CA), full-length four-domain recombinant protein (Thalassiosira pseudonana); assay: SEC-SAXS; SWING beamline (SOLEIL), Agilent Bio SEC-5 500 Å column, 15 °C; molecular mass from SAXS-MoW
[2] = molecular target: iota carbonic anhydrase from Thalassiosira pseudonana (tpι-CA), full-length four-domain recombinant protein (Thalassiosira pseudonana); assay: native MS; ESI-MS under non-denaturing conditions, 500 mM ammonium acetate pH 8, 8 µM protein, Q-ToF (Synapt G1), source 20 °C
[3] = molecular target: iota carbonic anhydrase from Thalassiosira pseudonana (tpι-CA), full-length four-domain recombinant protein (Thalassiosira pseudonana); assay: cross-linking; 0.01% glutaraldehyde, 20 mM Na2HPO4 pH 8.0, 10 to 15 min at room temperature, then SDS-PAGE and Western blot
[4] = molecular target: iota carbonic anhydrase from Thalassiosira pseudonana (tpι-CA), full-length four-domain recombinant protein (Thalassiosira pseudonana); assay: SEC; Superdex Increase S200 10 x 300 at 4 °C, samples loaded at 50 µM to 200 µM; Benzonase treatment where mentioned
[5] = molecular target: tpι-CA domain variant ∆1 (composed of domain 1 only) (Thalassiosira pseudonana); assay: DOSY-NMR; 30 to 80 µM protein, 27 mM Tris, 45 mM NaCl, 10% D2O, pH 8, 298 K, 600 MHz; experimental Dt and Rh compared with HYDROPRO values of the models
[6] = molecular target: tpι-CA domain variant ∆1-2 (composed of domains 1 and 2) (Thalassiosira pseudonana); assay: as above

Substance: iota carbonic anhydrase from Thalassiosira pseudonana (tpι-CA), full-length four-domain recombinant protein (enzyme)
- stoichiometry N [1]: 4
- stoichiometry N [2]: 4
- stoichiometry N [3]: 4
- stoichiometry N [4]: 4

Substance: tpι-CA domain variant ∆1 (composed of domain 1 only) (domain or fragment)
- stoichiometry N [5]: 2

Substance: tpι-CA domain variant ∆1-2 (composed of domains 1 and 2) (domain or fragment)
- stoichiometry N [6]: 4
